Laboratory results from PMC8065591 (2021).
Bridges are numbered along the chain shown (N, C = ends). [ ]: non-standard residue; d: D form. Aph(Hor) = 4-amino-phenylalanine(L-hydroorotic acid); dPhe(4-NHCONH2) = NC(=O)Nc1ccc(C[C@@H](N)C(=O)O)cc1; Cpa = not defined here; Ahx = NCCCCCC(=O)O

B1: [99mTc]Tc-HYNIC-Ahx-JR11 (peptide)
chain: {(99mTc)Tc‑HYNIC/EDDA-Ahx-Cpa}-[dC][Aph(Hor)][dPhe(4-NHCONH2)]KTC[dY]-NH2
modifications: disulfide 1-6 (inferred); reading uncertain; also: 99mTc complex, EDDA coligand, printed as Cpa-c(dCys-Aph(Hor)-dAph(Cbm)-Lys-Thr-Cys)-dTyr-NH2
B2: [99mTc]Tc-N4-JR11 (peptide)
chain: {(99mTc)Tc‑N4-Cpa}-[dC][Aph(Hor)][dPhe(4-NHCONH2)]KTC[dY]-NH2
modifications: disulfide 1-6 (inferred); reading uncertain; also: 99mTc complex, printed as Cpa-c(dCys-Aph(Hor)-dAph(Cbm)-Lys-Thr-Cys)-dTyr-NH2

Target: somatostatin receptor type 2 (SST2) (Homo sapiens, UniProt P30874)
Assay: saturation binding of radioligand on HEK-SST2 cell membranes

somatostatin receptor type 2 (SST2), sequence (P30874 whole entry): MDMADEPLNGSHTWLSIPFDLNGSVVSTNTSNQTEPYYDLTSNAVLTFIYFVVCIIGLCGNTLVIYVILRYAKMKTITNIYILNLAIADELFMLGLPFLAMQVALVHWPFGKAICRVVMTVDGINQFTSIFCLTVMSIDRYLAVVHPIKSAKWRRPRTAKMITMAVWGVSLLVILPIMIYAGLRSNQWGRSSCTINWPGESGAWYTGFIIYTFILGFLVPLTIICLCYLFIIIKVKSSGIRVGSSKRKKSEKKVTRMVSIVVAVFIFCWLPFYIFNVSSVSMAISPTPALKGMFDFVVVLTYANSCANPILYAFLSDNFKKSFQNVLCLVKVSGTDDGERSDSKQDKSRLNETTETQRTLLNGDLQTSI

Point of comparison: {(99mTc)Tc‑N4-Cpa}-[dC]Y[dW]KTC[dY]-NH2 (disulfide 1-6 (inferred); reading uncertain; also: 99mTc complex) [[99mTc]Tc-N4-SS01], Kd 0.92 nM. Against it:
- B1 — within 1.5-fold, 0.85 nM
- B2 — 1.5-fold lower, 0.6 nM
- {(99mTc)Tc‑HYNIC/EDDA-Ahx-Cpa}-[dC]Y[dW]KTC[dY]-NH2 (disulfide 1-6 (inferred); reading uncertain; also: 99mTc complex, EDDA coligand) [[99mTc]Tc-HYNIC-Ahx-SS01] — 1.7-fold higher, 1.6 nM
